The target in data set [1] is T1, FjGH65A (Flavobacterium johnsoniae, UniProt A5FBJ5, E472Q).
T1 construct: gene Fjoh_4428; residues 24-681, signal peptide removed, N-terminal His6 tag (pET28a), E. coli BL21(DE3); hexamer (433 kDa by gel filtration)
As to the kind of experiment: hydrolysis activity. It counts as biochemical. The note with it: general acid catalyst mutant.

For data set [2], the target named is T2, FjGH65A (Flavobacterium johnsoniae, UniProt A5FBJ5, E616Q).
T2 construct: gene Fjoh_4428; residues 24-681, signal peptide removed, N-terminal His6 tag (pET28a), E. coli BL21(DE3); hexamer (433 kDa by gel filtration)
T2 sequence (A5FBJ5 24-681 E616Q): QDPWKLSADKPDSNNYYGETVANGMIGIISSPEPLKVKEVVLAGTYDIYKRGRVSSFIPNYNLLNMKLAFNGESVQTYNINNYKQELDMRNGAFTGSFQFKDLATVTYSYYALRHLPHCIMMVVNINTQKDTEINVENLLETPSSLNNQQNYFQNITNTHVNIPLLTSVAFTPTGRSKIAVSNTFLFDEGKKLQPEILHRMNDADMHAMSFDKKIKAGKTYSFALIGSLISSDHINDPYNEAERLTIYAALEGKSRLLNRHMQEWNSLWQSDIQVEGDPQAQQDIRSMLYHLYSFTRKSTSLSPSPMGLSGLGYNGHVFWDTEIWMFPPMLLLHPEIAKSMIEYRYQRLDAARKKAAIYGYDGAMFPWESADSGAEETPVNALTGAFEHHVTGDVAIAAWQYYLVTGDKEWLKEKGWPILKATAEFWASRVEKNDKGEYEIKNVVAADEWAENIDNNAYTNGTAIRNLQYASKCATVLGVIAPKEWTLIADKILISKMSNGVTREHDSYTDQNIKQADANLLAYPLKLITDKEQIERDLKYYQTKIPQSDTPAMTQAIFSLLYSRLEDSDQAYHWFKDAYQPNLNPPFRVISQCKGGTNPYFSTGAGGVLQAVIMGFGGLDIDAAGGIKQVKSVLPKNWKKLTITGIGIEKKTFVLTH
As to the kind of experiment: hydrolysis activity. The class given is biochemical. The note with it: general base catalyst mutant.

Data set [3] has as its target FjGH65A (Fjoh_4428), GH65 α-1,2-glucosidase from Flavobacterium johnsoniae (Flavobacterium johnsoniae). The experiment in a line: SEC; gel filtration on HiPrep 16/60 Sephacryl S-200 HR, 20 mM sodium citrate buffer (pH 6.0) with 150 mM NaCl; column calibrated with thyroglobulin, ferritin, aldolase, conalbumin and ovalbumin.
Data set [4] shares this target. The experiment in a line: crystal structure; space group C2, three monomers (MolA, MolB, MolC) in the asymmetric unit; hexamer by the crystallographic two-fold axis, PISA analysis; native 1.54 Å and glucose complex 1.40 Å.
Data set [5] deals with T3, FjGH65A (Flavobacterium johnsoniae, UniProt A5FBJ5).
T3 construct: gene Fjoh_4428; residues 24-681, signal peptide removed, N-terminal His6 tag (pET28a), E. coli BL21(DE3); hexamer (433 kDa by gel filtration)
As to the kind of experiment: X-ray crystal structure of the complex, […] Å. The class given is binding. The note with it: crystal cryoprotected with 30% (w/v) glucose; four sites: subsites -1, +1, +2 and linker region.

Substrate in data set [6]: OC[C@H]1O[C@H](F)[C@H](O)[C@@H](O)[C@@H]1O
As to the kind of experiment: hydrolysis kinetics (assay details for this substrate not stated). The class given is biochemical, Flavobacterium johnsoniae. Conditions: kinetic conditions for this substrate not stated. The text has this: hydrolysis kinetics (assay details for this substrate not stated) on FjGH65A

Where only a bound is given, the exact number is not on record here.

What is called stoichiometry N is the number of molecules, sites or subunits per partner or assembly. As usually defined, the Km is the concentration of substrate that gives half-maximal velocity. The term kcat denotes the maximal rate divided by the concentration of active sites. A word on the kcat/Km: it is the second-order rate constant that governs catalysis at low substrate concentration.

T1 sequence (A5FBJ5 24-681 E472Q): as the sequence (A5FBJ5 24-681 E616Q) above, with E449Q, Q593E counted along it

As for `OC[C@H]1O[C@H](O[C@H]2C(O)O[C@H](CO)[C@@H](O)[C@@H]2O)[C@H](O)[C@@H](O)[C@@H]1O` (mixture of isomers) [Kojibiose], the “activity (% of wild type)” value at FjGH65A [1] and on FjGH65A [2] was less than 0.1% each time.

On to “FjGH65A (Fjoh_4428), GH65 α-1,2-glucosidase from Flavobacterium johnsoniae (enzyme)”, for which the stoichiometry N in data set [3] and in data set [4] was 6 each time.

`OC[C@H]1O[C@@H](O)[C@H](O)[C@@H](O)[C@@H]1O` [β-glucose]: on FjGH65A [5], the “X-ray crystal structure of the complex, 1.40 Å” value is “Each monomer of FjGH65A binds four β-glucose molecules”.

B1: FjGH65A (Flavobacterium johnsoniae UW101) (protein)
chain: QDPWKLSADKPDSNNYYGETVANGMIGIISSPEPLKVKEVVLAGTYDIYKRGRVSSFIPNYNLLNMKLAFNGESVQTYNINNYKQELDMRNGAFTGSFQFKDLATVTYSYYALRHLPHCIMMVVNINTQKDTEINVENLLETPSSLNNQQNYFQNITNTHVNIPLLTSVAFTPTGRSKIAVSNTFLFDEGKKLQPEILHRMNDADMHAMSFDKKIKAGKTYSFALIGSLISSDHINDPYNEAERLTIYAALEGKSRLLNRHMQEWNSLWQSDIQVEGDPQAQQDIRSMLYHLYSFTRKSTSLSPSPMGLSGLGYNGHVFWDTEIWMFPPMLLLHPEIAKSMIEYRYQRLDAARKKAAIYGYDGAMFPWESADSGAEETPVNALTGAFEHHVTGDVAIAAWQYYLVTGDKEWLKEKGWPILKATAEFWASRVEKNDKGEYEIKNVVAADEWAENIDNNAYTNGTAIRNLQYASKCATVLGVIAPKEWTLIADKILISKMSNGVTREHDSYTDQNIKQADANLLAYPLKLITDKEQIERDLKYYQTKIPQSDTPAMTQAIFSLLYSRLEDSDQAYHWFKDAYQPNLNPPFRVISECKGGTNPYFSTGAGGVLQAVIMGFGGLDIDAAGGIKQVKSVLPKNWKKLTITGIGIEKKTFVLTH
notes: residues 24-681, signal peptide removed, N-terminal His6 tag (pET28a), E. coli BL21(DE3); hexamer (433 kDa by gel filtration)
On to B1, for which, in data set [6], the Km is given as 3.1 ± 0.2 mM, the kcat turned out to be 56.1 ± 1.8 s⁻¹ and the kcat/Km worked out at 18100 M⁻¹ s⁻¹.
